The results in this text go back to patent US20180112001A1 (Regeneron, published 2018).

Test [1] concerns the target T1, MUC16 "short" construct expressed on PC3 cells (PC3/MUC16 short) (human).
T1 construct: Transfected into PC3/ATCC cells; part of SEA12, SEA13-SEA16, C-terminal non-SEA region, transmembrane region and cytoplasmic domain; also called "nub" portion of MUC16 without the repeat regions
T1 chain: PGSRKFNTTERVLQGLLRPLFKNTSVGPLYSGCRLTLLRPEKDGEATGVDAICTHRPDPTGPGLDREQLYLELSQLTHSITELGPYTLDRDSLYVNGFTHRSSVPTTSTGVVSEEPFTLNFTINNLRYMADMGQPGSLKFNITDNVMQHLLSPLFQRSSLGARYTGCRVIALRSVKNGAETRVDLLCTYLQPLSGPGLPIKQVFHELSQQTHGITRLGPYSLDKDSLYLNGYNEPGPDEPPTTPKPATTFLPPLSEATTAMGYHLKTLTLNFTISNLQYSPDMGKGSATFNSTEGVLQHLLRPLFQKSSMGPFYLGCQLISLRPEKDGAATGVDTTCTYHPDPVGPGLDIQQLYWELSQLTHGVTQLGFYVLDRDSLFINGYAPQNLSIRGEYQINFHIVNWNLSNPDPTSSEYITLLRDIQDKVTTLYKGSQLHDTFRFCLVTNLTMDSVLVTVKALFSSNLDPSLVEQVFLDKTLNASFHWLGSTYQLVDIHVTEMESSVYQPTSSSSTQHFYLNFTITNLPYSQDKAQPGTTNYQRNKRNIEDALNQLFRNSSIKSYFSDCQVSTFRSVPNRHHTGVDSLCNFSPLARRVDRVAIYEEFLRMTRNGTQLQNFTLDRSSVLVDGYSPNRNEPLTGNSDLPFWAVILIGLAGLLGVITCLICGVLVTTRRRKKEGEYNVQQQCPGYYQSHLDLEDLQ
The experiment in a line: IHC on FFPE cell pellets, PC3/MUC16 Short cells.

For test [2], the target named is T2, soluble monomeric human MUC16, truncated format encompassing the last five SEA domains of Mucin-16 (human).
T2 construct: also called hMUC16.mmh; MUC16 "nub"
T2 chain: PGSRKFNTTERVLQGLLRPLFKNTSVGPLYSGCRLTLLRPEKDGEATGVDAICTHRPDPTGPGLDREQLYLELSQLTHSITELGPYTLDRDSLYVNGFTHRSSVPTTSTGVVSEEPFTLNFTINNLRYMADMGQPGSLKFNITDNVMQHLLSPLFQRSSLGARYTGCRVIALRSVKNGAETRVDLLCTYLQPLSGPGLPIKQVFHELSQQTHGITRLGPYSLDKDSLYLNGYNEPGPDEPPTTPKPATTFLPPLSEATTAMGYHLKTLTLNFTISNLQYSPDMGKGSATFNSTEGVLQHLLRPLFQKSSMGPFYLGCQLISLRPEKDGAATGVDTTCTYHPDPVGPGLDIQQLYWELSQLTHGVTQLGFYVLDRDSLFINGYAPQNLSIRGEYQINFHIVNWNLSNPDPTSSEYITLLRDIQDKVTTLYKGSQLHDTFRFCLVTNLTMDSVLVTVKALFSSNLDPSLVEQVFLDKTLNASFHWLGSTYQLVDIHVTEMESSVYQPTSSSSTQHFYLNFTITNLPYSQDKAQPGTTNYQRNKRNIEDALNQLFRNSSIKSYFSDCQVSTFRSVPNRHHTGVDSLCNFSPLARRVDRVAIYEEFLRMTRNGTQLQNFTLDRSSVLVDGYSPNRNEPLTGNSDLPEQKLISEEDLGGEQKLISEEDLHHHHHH
The experiment in a line: SPR Biacore, antibody captured, soluble monomeric hMUC16.mmh injected, 25C. In general terms: Surface plasmon resonance follows binding to a sensor surface in real time, without labels.

In test [3] the target is T3, human MUC16 (mucin 16), endogenously expressed on cells (human).
T3 construct: Endogenous MUC16 on OVCAR-3 / OVCAR3-Luc / PEO-1 / HPAC cells; also called hMUC16
The experiment in a line: MSD electrochemiluminescence cell binding; RLU ratio OVCAR-3/SK-OV-3; Ab 16.7 nM.

Test [4] has as its target T3, human MUC16 (mucin 16), endogenously …. In words: MSD electrochemiluminescence cell binding; RLU ratio OVCAR-3/SK-OV-3; Ab 1.9 nM.

B1: H2M7138N (antibody, mouse IgG2, V domains shown)
VH: QVQLVQSGAEVKKPGASVKVSCKASGYTFTSSDINWVRQATGQGLEWVGWMNPNYGYTGSARKFQDRVTMTRNTSLSTAYLELHSLRSEDTAVYYCARVTYCSSVTSCFRPFTYWGQGTLVTVSA
VL: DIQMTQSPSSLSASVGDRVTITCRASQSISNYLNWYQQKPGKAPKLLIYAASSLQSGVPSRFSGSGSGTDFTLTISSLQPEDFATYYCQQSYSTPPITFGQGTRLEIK
notes: Mouse IgG2 constant region (H2M); also called H2aM7138N
For the molecule B1, in test [1], the binding result is “binds”. In addition, in test [2], binding was put at a Kd of 1.25 nM, the koff was determined as 9.25e-05 s⁻¹, the kon worked out at 74100 M⁻¹ s⁻¹ and the “t ½” value worked out at 2.08 h. The “Ratio: anti-MUC16 Binding OVCAR-3/SK-OV-3” value in test [3] stood at 50 ratio. Besides, the “Ratio: anti-MUC16 Binding OVCAR-3/SK-OV-3” value in test [4] is 82 ratio.

For orientation: Kd means a measure of binding affinity in units of concentration. As a reminder, the koff is the first-order rate constant of dissociation. A higher koff goes with fast dissociation. The term kon denotes the rate constant with which the complex forms. Low values mean slower complex formation, high ones faster complex formation.
